Target: T1, GmFDL19 (Glycine max, UniProt I1N8K2 1-320)
T1 sequence: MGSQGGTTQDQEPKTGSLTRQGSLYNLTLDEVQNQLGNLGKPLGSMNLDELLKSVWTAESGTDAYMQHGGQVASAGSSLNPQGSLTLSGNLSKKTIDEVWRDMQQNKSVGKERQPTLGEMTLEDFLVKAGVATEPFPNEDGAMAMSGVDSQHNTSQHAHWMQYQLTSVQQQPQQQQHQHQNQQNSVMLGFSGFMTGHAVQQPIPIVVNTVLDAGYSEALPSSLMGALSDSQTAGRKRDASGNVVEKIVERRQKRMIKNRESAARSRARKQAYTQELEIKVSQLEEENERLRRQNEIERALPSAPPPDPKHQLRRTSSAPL
Experiment: EMSA; Invitrogen EMSA kit E33075, 6% native TBE polyacrylamide gel, 200 V 45 min, SYBR Green stain; binding buffer, salt, pH and temperature not stated
Settings: protein: recombinant; tags: His (pET29b, NdeI/SalI); chain copies: 2; label: none (SYBR Green stain); blunt

B1: GmAP1aP-1280 CArG box (dsDNA)
DNA 1: GCAACCATCCATCCAAAAATAAGGCAAAAAAAATAAACAT
DNA 2: ATGTTTATTTTTTTTGCCTTATTTTTGGATGGATGGTTGC
**Q.** Does B1 bind?
**A.** Result: no binding
